# Assay results: patent publication US20240317845A1 (NINGBO SANSHENG BIOLOGICAL TECHNOLOGY, published 2024)
# B1: anti-inhibin monoclonal antibody 1E5 secreted by hybridoma cell line 1E57 (antibody, V domains shown)
# VH: EVKLVESGPELKKPGETVKISCKASGYTFTDYSMHWVKQAPGKGLKWMGWINTETGEPTYADDFKGRFAFSLETSASTAYLQINNLKNEDTATYFCAYYGPPTYSLDYWGQGASVTVSS
# VL: DIQMTQTTSSLSASLGDRVTISCRASQGISNYLNWYQQKPDGTVKLLIYYTSRLLSGVPSRFSGSGSGTDYSLTISNLEQEDIATYFCQQGYTLPFTFGSGTKLEIK
# notes: Mouse hybridoma antibody; Tested as culture supernatant, as ascites and as Protein G purified ascites antibody; also called 1E57 culture supernatant; ascites-derived monoclonal antibody 1E5
# Columns and labels:
# [1] = target: T1, 6-25 fragment of inhibin α-subunits coupled to chicken ovalbumin (OVA) (porcine (fragment said to be 100% …, UniProt P01012 2-386, chemically coupled to chicken ovalbumin (OVA))); test: indirect ELISA, plate coated with 6-25 fragment-OVA, culture supernatant, replicate 2
# T1 construct: also called antigenic peptide; 6-25 fragment of inhibin a subunits
# Protocol: (§1) The 6-25 fragment of inhibin α-subunits coupled to chicken ovalbumin (OVA) were diluted to a sodium bicarbonate solution having a pH9.6 at a concentration of 10 μg/ml, and 100 μl per well was added to the microtiter plate (96 well plate). The plate was set aside overnight at 2-8° C. overnight, and taken out for washing and then patted dry next day, 5% BSA was added into the plate to block, 200 μl per well, and incubated at 37° C. for 1 h;
# (§2) The plate was washed and patted dry. 100 μl of the fused culture supernatant was taken under aseptical conditions, added to the microtiter plate, and incubated at 37° C. for 1 h;
# (§3) After washing the plate, chromogenic solution was added into the plate, 100 μl per well, and incubated at 37° C. for 5-10 minutes. 50 μl of stop solution was added into the plate, and the absorbance value was read at a wavelength of 460 nm.
# [2] = target: T1, 6-25 fragment of inhibin α-subunits …; test: indirect ELISA, plate coated with 6-25 fragment-OVA, culture supernatant, replicate 1
# Protocol: as §1, §2, §3
# T1 sequence (peptide, as listed by the source limits assumed, chain 1 of 2): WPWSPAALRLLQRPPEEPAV
# T1 sequence (P01012 2-386 limits assumed, chain 2 of 2): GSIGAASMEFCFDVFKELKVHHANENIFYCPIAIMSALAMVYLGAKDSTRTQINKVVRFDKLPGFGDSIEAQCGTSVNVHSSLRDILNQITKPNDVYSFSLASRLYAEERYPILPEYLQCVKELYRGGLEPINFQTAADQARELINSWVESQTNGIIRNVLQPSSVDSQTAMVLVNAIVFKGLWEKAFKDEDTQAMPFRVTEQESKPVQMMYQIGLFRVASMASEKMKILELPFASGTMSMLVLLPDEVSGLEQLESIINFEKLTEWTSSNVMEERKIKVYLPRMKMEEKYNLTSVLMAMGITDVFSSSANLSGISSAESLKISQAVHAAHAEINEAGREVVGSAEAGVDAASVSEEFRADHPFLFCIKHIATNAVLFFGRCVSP
binder,measurement,setting,value
B1,absorbance at dilution ratio 200,[1],3.25 absorbance
same,absorbance at dilution ratio 400,[1],2.36 absorbance
same,absorbance at dilution ratio 800,[1],2.08 absorbance
same,absorbance at dilution ratio 1600,[1],1.9 absorbance
same,absorbance at dilution ratio 3200,[1],1.43 absorbance
same,absorbance at dilution ratio 6400,[1],0.831 absorbance
same,absorbance at dilution ratio 12800,[1],0.648 absorbance
same,absorbance at dilution ratio 25600,[1],0.398 absorbance
same,absorbance at dilution ratio 51200,[1],0.256 absorbance
same,absorbance at dilution ratio 102400,[1],0.189 absorbance
same,absorbance at dilution ratio 200,[2],3.31 absorbance
same,absorbance at dilution ratio 400,[2],2.8 absorbance
same,absorbance at dilution ratio 800,[2],2.92 absorbance
same,absorbance at dilution ratio 1600,[2],2.28 absorbance
same,absorbance at dilution ratio 3200,[2],1.69 absorbance
same,absorbance at dilution ratio 6400,[2],1.28 absorbance
same,absorbance at dilution ratio 12800,[2],0.823 absorbance
same,absorbance at dilution ratio 25600,[2],0.613 absorbance
same,absorbance at dilution ratio 51200,[2],0.359 absorbance
same,absorbance at dilution ratio 102400,[2],0.263 absorbance
